{"source": "patent US20260275311", "about": "“CRISPR NUCLEASE POLYPEPTIDES AND GENE EDITING SYSTEMS COMPRISING SUCH” (ARBOR BIOTECHNOLOGIES, INC., published 2026)", "binders": {"B1": {"name": "Nuclease A EMX1-T7 guide ; EMX1-T7 target (ssRNA ; dsDNA)", "RNA": "CUUUAGCAAGGGACUAUUCAGUUACAGUUAAGGCUCUUUGGAAACAAAGAAGCCUUAAUUGUAAAACGCCUAUAUGGUAAAGUGAUGUACGUUUGGGUAUAUAUCGCCAGCCUGAACCUCUACGCCAGAAAUGGCAGCUUUAUCAUGGGUUAGGACGAUAUUUAAAAAACUUUCUGCGGCUUGCUUACUUUAGUAAGCUUUGUGGCUGAGGCAGAAUUCCUU", "DNA 1": "CTTTAGCAAGGGACTATTCA", "DNA 2": "TGAATAGTCCCTTGCTAAAG"}, "B2": {"name": "Nuclease K VEGFA-T6 guide ; VEGFA-T6 target (ssRNA ; dsDNA)", "RNA": "UUUGCCCAUACUGGGGACCAGUUACAGUUAAGGCUCUGAAAAGAGCCUUAAUUGUAAAACGCCUAUACAGUGAAGGGAUAUACGCUUGGGUUUGUCCAGCCUGAGCCUCUAUGCCAGAAAUGGCGCCUUCAUCGUGGGUUAGGACAUUUAAAUUUAAAAACUAUUCAGCACUGUUUGCUCUUGUCAGCUUGGUGGCAGA", "DNA 1": "TTTGCCCATACTGGGGACCA", "DNA 2": "TGGTCCCCAGTATGGGCAAA"}}, "key": {"Nuclease A": {"molecular_target": "T1, Nuclease A", "T1 chain": "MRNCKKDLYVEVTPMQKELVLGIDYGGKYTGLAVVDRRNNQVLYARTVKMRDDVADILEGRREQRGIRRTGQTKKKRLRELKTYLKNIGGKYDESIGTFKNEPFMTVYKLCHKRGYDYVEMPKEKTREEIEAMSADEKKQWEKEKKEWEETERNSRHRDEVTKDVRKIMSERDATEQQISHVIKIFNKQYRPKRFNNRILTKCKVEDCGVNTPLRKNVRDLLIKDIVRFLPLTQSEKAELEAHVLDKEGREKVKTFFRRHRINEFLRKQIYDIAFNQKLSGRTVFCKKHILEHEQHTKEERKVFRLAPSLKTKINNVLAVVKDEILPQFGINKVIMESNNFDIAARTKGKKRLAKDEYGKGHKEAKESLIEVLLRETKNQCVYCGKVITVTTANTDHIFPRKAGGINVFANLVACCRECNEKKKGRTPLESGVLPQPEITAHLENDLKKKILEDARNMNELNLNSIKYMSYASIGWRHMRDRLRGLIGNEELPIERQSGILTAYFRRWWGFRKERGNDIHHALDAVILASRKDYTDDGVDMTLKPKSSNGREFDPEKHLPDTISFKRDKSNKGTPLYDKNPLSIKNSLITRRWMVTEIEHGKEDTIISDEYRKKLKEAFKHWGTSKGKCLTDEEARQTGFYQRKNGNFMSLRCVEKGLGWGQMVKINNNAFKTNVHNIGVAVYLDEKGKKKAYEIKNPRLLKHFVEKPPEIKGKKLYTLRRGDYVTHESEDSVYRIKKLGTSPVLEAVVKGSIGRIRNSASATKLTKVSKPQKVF", "test": "cell_activity; PAM NGG (GGG); HEK293T", "settings": "tags: N-terminal SV40 NLS, C-terminal XTEN linker + nucleoplasmin NLS", "procedure": "(§1) Approximately 16 hours prior to transfection, 25,000 HEK293T cells in DMEM/10% FBS+Pen/Strep (D10 media) were plated into each well of a 96-well plate. On the day of transfection, the cells were 50-90% confluent. For each well to be transfected, a mixture of Lipofectamine 2000™ (ThermoFisher Scientific) and Opti-MEM™ (ThermoFisher Scientific) was prepared and incubated at room temperature for 5 minutes (Solution 1). After incubation, the Lipofectamine 2000™: Opti-MEM™ mixture was added to a separate mixture containing the CRISPR nuclease plasmid (NLS-tagged), RNA guide plasmid, and Opti-MEM™ (Solution 2). In the case of negative controls, the CRISPR nuclease plasmid was excluded. Solutions 1 and 2 were mixed by pipetting up and down, then incubated at room temperature for 25 minutes. Following incubation, the Solution 1 and 2 mixture was added dropwise to each well of a 96-well plate containing the cells. […]\n(§2) Each Nuclease A variant and RNA guide (see Table 5) was cloned as described in Example 2. […] For each target, indel ratios, referring to the percentage of NGS reads comprising indels, were calculated for Nuclease A (SEQ ID NO: 1) and for each variant of Nuclease A. The indel ratios shown in Table 6 were calculated as the average of two bioreplicates, each of which contained two technical replicates."}, "[1]": {"molecular_target": "T2, Nuclease A I67R/D568R/E706R", "T2 chain": "T1 chain with I67R, D568R, E706R", "test": "cell_activity; PAM NGG (GGG); HEK293T", "settings": "tags: N-terminal SV40 NLS, C-terminal XTEN linker + nucleoplasmin NLS", "procedure": "as §1, §2"}, "Nuclease K D582R/G42R": {"molecular_target": "T3, Nuclease K D582R/G42R (D582R,G42R)", "T3 chain": "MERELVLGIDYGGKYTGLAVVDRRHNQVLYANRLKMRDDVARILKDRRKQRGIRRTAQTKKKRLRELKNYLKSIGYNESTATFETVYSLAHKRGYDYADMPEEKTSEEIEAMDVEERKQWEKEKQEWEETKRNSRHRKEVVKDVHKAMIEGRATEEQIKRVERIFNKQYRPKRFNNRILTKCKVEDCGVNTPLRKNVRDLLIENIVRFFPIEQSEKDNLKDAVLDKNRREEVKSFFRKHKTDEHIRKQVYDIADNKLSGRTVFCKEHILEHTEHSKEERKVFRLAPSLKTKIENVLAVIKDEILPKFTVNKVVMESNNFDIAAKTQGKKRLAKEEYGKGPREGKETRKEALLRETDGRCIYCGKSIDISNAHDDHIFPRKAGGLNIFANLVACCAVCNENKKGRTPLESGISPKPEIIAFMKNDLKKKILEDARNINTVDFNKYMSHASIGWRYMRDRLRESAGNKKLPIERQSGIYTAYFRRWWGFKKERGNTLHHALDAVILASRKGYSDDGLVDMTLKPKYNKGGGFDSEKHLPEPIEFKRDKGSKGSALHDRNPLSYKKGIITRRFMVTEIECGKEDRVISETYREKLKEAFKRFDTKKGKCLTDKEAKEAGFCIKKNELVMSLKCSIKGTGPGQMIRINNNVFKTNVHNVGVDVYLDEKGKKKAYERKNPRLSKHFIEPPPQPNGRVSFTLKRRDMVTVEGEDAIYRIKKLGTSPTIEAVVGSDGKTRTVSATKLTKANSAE", "test": "cell_activity; PAM NGG; HEK293T", "settings": "tags: N- and C-terminal NLS", "procedure": "(§3) This Example describes indel assessment on mammalian targets using nuclease variants of Nuclease K comprising two or more substitutions identified as increasing indel activity in Example 8. 71 combination Nuclease K variants were tested.\n(§4) Each Nuclease K variant and RNA guide (see Table 19) was cloned as described in Example 8. HEK293T cells were further transfected, followed by NGS analysis, as described in Example 8. For each target, indel ratios, referring to the percentage of NGS reads comprising indels, were calculated for the reference Nuclease K (SEQ ID NO: 65) and for each Nuclease K variant. The indel ratios shown in Table 20 were calculated as the average of two bioreplicates, each of which contained two technical replicates."}, "[2]": {"molecular_target": "T4, Nuclease K D582R/I53R/T734R (D582R,I53R,T734R)", "T4 chain": "T3 chain with R42G, I53R, T734R", "test": "cell_activity; PAM NGG; HEK293T", "settings": "tags: N- and C-terminal NLS", "procedure": "as §3, §4"}, "Nuclease K": {"molecular_target": "T5, Nuclease K", "T5 chain": "T3 chain with R42G, R582D", "test": "cell_activity; PAM NGG (AGG); HEK293T", "settings": "tags: N-terminal SV40 NLS, C-terminal nucleoplasmin NLS"}}, "note": "Changes are numbered by the printed parent chain."}
{"binder": "B1", "values": [{"measurement": "activity", "setting": "Nuclease A", "value": 0.033, "unit": "indel ratio"}, {"measurement": "activity", "setting": "[1]", "value": 0.337, "unit": "indel ratio"}]}
{"binder": "B2", "values": [{"measurement": "activity", "setting": "Nuclease K D582R/G42R", "value": 0.153, "unit": "indel ratio"}, {"measurement": "activity", "setting": "[2]", "value": 0.097, "unit": "indel ratio"}, {"measurement": "activity", "setting": "Nuclease K", "value": 0.009, "unit": "indel ratio"}]}
